Test results taken from PMC4864278.

Experiments:
[1] = target: TRIM32 extended RING domain (UniProt Q13049); experiment: SAXS; batch SAXS, Diamond Light Source beamline B21; at least three dilutions of each construct; concentrations as in Table 2
[2] = target: TRIM32 extended RING domain (UniProt Q13049); experiment: SEC-MALS; SEC-MALLS, Superdex 75 or Superdex 200 10/300 GL, 25°C, 20 mM HEPES pH 7.5, 100 mM NaCl (TRIM32) or 150 mM NaCl (TRIM25), 0.5 mM TCEP, 3 mM NaN3; samples run over a range of concentrations

Chain of TRIM32 extended RING domain (from UniProt Q13049 1-93) (domain or fragment) (Q13049 1-93): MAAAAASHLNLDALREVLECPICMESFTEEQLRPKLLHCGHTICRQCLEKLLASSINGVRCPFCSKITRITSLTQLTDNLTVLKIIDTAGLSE

“TRIM32 extended RING domain (from UniProt Q13049 1-93) (domain or fragment)” was tested, and the stoichiometry N [1] was 2 and the stoichiometry N [2] was 2.
